Source: patent US20230014722A1 (CSTONE PHARMACEUTICALS, published 2023)

Legend:
[1] = target: T1, human PD-1 on transfected cells (human, UniProt Q15116 25-288); experiment: FACS competition on CHO-S cells expressing human PD-1 against biotinylated WBP305BMK1 at 1 µg/ml
T1 construct: also called CHO-S cells expressing human PD-1; human PD-1 transfected CHO-S cells
Experimental: (§1) The cells were washed and the second antibody Streptavidin-PE were added and incubated for 30 min at 4° C. The cells were then washed once and resuspended in 1×PBS/1% BSA, and analyzed by flow cytometery (BD).

[2] = target: T2, mouse PD-1 on transfected 293F cells (mouse, UniProt Q02242 25-288); experiment: flow cytometry on 293F cells expressing mouse PD-1, quantitative beads
T2 construct: whole, on cells; also called cell surface mouse PD-1
T2 sequence (looked up): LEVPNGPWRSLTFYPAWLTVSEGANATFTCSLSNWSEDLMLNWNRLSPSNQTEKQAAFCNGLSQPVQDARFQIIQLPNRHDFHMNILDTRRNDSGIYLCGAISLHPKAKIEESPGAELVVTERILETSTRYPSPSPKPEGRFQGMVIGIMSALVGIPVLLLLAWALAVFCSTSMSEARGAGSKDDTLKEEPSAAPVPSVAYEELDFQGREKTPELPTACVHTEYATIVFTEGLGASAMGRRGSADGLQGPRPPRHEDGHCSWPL
Experimental: (§2) Testing antibodies were 1:2 serially diluted in wash buffer (1×PBS/1% BSA) and incubated with cells at 4° C. for 1 h.

[3] = target: T1, human PD-1 on transfected cells; experiment: FACS, human PD-1 transfected CHO-S cells
[4] = target: cynomolgus PD-1 antigen protein of the affinity-maturation screen (cynomolgus); experiment: capture ELISA, second-round affinity-maturation screen (scFv format likely); unit not given
[5] = target: T3, mouse PD-1 antigen protein of the affinity-maturation screen (mouse, UniProt Q02242 25-167, limits assumed, biotinylated); experiment: as above
T3 sequence (looked up): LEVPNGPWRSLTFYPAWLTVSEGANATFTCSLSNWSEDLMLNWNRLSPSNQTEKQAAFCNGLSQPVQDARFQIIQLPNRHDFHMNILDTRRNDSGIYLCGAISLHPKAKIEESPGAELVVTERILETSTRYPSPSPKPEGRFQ

[6] = target: human PD-1 antigen protein of the affinity-maturation screen (human, UniProt Q15116 25-167, limits assumed, biotinylated); experiment: as above
[7] = target: T2, mouse PD-1 on transfected 293F cells; experiment: FACS blocking assay: mouse Fc fusion-mouse PD-L1 binding to mouse PD-1 transfected 293F cells
mPD-1.His = target: T4, mPD-1.His (mouse, UniProt Q02242 25-167, limits assumed); experiment: SPR (ProteOn XPR36), antibody captured on Protein A, PD-1.His as analyte, 1:1 fit
T4 construct: Soluble analyte, probably the extracellular domain; also called mouse PD-1 (SPR analyte)
T4 sequence (looked up): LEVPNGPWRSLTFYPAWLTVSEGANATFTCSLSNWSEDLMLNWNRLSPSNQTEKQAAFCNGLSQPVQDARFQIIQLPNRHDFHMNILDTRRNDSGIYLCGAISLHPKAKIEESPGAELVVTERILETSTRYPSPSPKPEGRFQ
Excerpt: (§3) Antibodies were characterized for affinity and binding kinetics to PD-1 by SPR assay using ProteOn XPR36 (Bio-Rad). Protein A protein (Sigma) was immobilized to a GLM sensor chip (Bio-Rad) through amine coupling. Purified antibodies were flowed over the sensor chip and captured by the Protein A. The chip was rotated […] and washed with running buffer (1×PBS/0.01% Tween20, Bio-Rad) until the baseline was stable. Seven concentrations of human PD-1 and running buffer were flowed through the sensor chip at a flow rate of 30 μL/min for an association phase of 180 s, followed by 300s dissociation. After regeneration, seven concentration of mouse PD-1 and running buffer were flowed through the sensor chip at a flow rate of 30 μL/min for an association phase of 180 s, followed by 300 s dissociation. The chip was regenerated with pH 1.5 H₃PO₄ after each run. The association and dissociation curve was fit by 1:1 Langmuir binding model using ProteOn software.

hPD-1.His = target: T5, hPD-1.His (human, UniProt Q15116 25-170); experiment: as above
T5 construct: the SPR text says only human PD-1; also called human PD-1 (SPR analyte)
Excerpt: as §3

[8] = target: T2, mouse PD-1 on transfected 293F cells; experiment: FACS, mouse PD-1 transfected 293F cells
[9] = target: T6, human CTLA-4 on a constructed cell line (human, UniProt P16410 36-223); experiment: FACS, CTLA-4.293F cells, one antibody concentration (not given)
T6 construct: whole, on cells
Experimental: (§4) Constructed cell lines that respectively express human PD-1, CD28, CTLA-4 or ICOS were transferred in to 96-well U-bottom plates (BD) at a density of 2×10⁵ cells/well. Testing antibodies were diluted in wash buffer (1×PBS/1% BSA) and incubated with cells at 4° C. for 1 h. After washing, the secondary antibody goat anti-human IgG Fc FITC (Jackson ImmunoResearch Lab) was added and incubated at 4° C. in the dark for 1 h. The cells were then washed once and resuspended in 1×PBS/1% BSA, and analyzed by flow cytometery (BD) and FlowJo software.

[10] = target: T1, human PD-1 on transfected cells; experiment: FACS blocking assay: mouse Fc fusion-human PD-L1 binding to human PD-1 transfected CHO-S cells
[11] = target: T7, human PD-1 (Sino Biological), coated on plates (human, UniProt Q15116 25-167); experiment: ELISA, plates coated with human PD-1 at 1 µg/ml
T7 construct: whole entry named
Experimental: (§5) For ELISA, plates (Nunc) were coated with human, cynomolgus or mouse PD-1 (Sino Biological) at 1 μg/ml overnight at 4° C. After blocking and washing, antibodies were serially diluted in blocking buffer and added to the plates and incubated at room temperature for 1 h. The plates were then washed and subsequently incubated with secondary antibody goat anti human IgG HRP (Bethyl) for 1 h. After washing, TMB substrate was added and the reaction was stopped by 2 M HCl. The absorbance at 450 nm was read using a microplate reader (Molecular Device).

[12] = target: T1, human PD-1 on transfected cells; experiment: flow cytometry on CHO-S cells expressing human PD-1, quantitative beads
Experimental: as §2

[13] = target: T1, human PD-1 on transfected cells; experiment: FACS competition on CHO-S cells expressing human PD-1 against biotinylated Keytruda at 1 µg/ml
Experimental: as §1

[14] = target: T8, mouse PD-1 (Sino Biological), coated on plates (mouse, UniProt Q02242 25-167); experiment: ELISA, plates coated with mouse PD-1 at 1 µg/ml
T8 sequence (looked up): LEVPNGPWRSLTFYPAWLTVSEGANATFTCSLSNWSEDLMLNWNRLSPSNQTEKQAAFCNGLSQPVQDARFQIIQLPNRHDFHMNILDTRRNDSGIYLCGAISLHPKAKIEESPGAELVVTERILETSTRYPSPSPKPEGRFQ
Experimental: as §5

[15] = target: cynomolgus PD-1 (Sino Biological), coated on plates (cynomolgus, UniProt B0LAJ3 25-170); experiment: ELISA, plates coated with cynomolgus PD-1 at 1 µg/ml
Experimental: as §5

[16] = target: T9, human CD28 on a constructed cell line (human, UniProt P10747 19-220); experiment: FACS, CD28.CHO-K1 cells, one antibody concentration (not given)
T9 construct: whole, on cells
Experimental: as §4

T5 sequence (Q15116 25-170): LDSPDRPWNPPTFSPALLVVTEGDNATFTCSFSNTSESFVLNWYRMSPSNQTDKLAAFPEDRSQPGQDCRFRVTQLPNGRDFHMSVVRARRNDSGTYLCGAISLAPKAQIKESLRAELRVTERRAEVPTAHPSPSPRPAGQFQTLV
T1 sequence (Q15116 25-288 limits assumed): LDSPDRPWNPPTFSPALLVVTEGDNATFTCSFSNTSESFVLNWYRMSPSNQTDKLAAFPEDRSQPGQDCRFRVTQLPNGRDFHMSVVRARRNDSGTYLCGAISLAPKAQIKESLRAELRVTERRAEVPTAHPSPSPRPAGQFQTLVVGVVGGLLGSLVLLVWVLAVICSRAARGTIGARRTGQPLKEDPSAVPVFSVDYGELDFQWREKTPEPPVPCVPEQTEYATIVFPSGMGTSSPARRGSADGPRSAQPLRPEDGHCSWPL
human PD-1 antigen protein of the affinity-maturation screen, sequence (Q15116 25-167 limits assumed): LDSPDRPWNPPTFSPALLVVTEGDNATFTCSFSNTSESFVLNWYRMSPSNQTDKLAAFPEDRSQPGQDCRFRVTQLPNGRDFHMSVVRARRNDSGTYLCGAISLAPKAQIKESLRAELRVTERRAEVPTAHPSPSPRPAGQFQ
T6 sequence (P16410 36-223): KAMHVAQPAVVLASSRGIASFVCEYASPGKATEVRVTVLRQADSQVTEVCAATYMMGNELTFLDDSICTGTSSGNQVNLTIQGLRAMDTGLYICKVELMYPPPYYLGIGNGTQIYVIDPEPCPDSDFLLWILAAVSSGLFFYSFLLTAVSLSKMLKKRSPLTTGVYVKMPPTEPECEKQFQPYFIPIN
T7 sequence (Q15116 25-167 limits assumed): as the sequence (Q15116 25-167 limits assumed) above
cynomolgus PD-1 (Sino Biological), coated on plates, sequence (B0LAJ3 entry or part of it limits assumed): as the sequence (Q15116 25-170) above, with D2E, P10A, V19L, T35A, Q75R, T144A counted along it

B1: 2E5 (antibody, human IgG4, V domains shown)
VH: QVQLVQSGAEVKKPGSSVKVSCKASGFTFTTYYISWVRQAPGQGLEYLGYINMGSGGTNYNEKFKGRVTITADKSTSTAYMELSSLRSEDTAVYYCAIIGYFDYWGQGTMVTVSS
VL: DVVMTQSPLSLPVTLGQPASISCRSSQSLLDSDGGTYLYWFQQRPGQSPRRLIYLVSTLGSGVPDRFSGSGSGTDFTLKISRVEAEDVGVYYCMQLTHWPYTFGQGTKLEIK
IC50 [1]: 5.84 nM
Kd [2]: 29 nM
EC50 [3]: 2.2 nM
Bmax [4]: 1.72
Bmax [5]: 0.47
Bmax [6]: 3.28
IC50 [7]: 13 nM
Kd (mPD-1.His): 3.99 nM
koff (mPD-1.His): 0.00129 s⁻¹
kon (mPD-1.His): 323000 M⁻¹ s⁻¹
Kd (hPD-1.His): 6.13 nM
koff (hPD-1.His): 0.00366 s⁻¹
kon (hPD-1.His): 597000 M⁻¹ s⁻¹
EC50 [8]: 12.9 nM
binding result [9]: no binding
IC50 [10]: 2.14 nM
EC50 [11]: 0.18 nM
Kd [12]: 0.23 nM
IC50 [13]: 9.52 nM
EC50 [14]: 0.37 nM
EC50 [15]: 0.25 nM
binding result [16]: no binding

B2: 1H6 (antibody, human IgG4, V domains shown)
VH: QVQLVQSGAEVKKPGSSVKVSCKASGFTFTTYYISWVRQAPGQGLEYLGYINMGSGGTNYNEKFKGRVTITADKSTSTAYMELSSLRSEDTAVYYCAILGYFDYWGQGTMVTVSS
VL: DVVMTQSPLSLPVTLGQPASISCRSSQSLLDSDGGTYLYWFQQRPGQSPRRLIYLVSTLGSGVPDRFSGSGSGTDFTLKISRVEAEDVGVYYCMQLTHWPYTFGQGTKLEIK
IC50 [1]: 8.77 nM
Kd [2]: 53.9 nM
EC50 [3]: 2.64 nM
Bmax [4]: 0.317
Bmax [5]: 0.221
Bmax [6]: 3.35
IC50 [7]: 20.4 nM
Kd (mPD-1.His): 9.37 nM
koff (mPD-1.His): 0.003 s⁻¹
kon (mPD-1.His): 320000 M⁻¹ s⁻¹
Kd (hPD-1.His): 14.3 nM
koff (hPD-1.His): 0.00918 s⁻¹
kon (hPD-1.His): 644000 M⁻¹ s⁻¹
EC50 [8]: 15.1 nM
binding result [9]: no binding
IC50 [10]: 2.22 nM
EC50 [11]: 0.2 nM
Kd [12]: 0.215 nM
IC50 [13]: 17.6 nM
EC50 [14]: 0.34 nM
EC50 [15]: 0.28 nM
binding result [16]: no binding

B3: 2B1 (antibody, V domains shown)
VH: QVQLVQSGAEVKKPGSSVKVSCKASGFTFTTYYISWVRQAPGQGLEYLGYINMGSGGTNYNEKFKGRVTITADKSTSTAYMELSSLRSEDTAVYYCAIIGYFDYWGQGTMVTVSS
VL: DVVMTQSPLSLPVTLGQPASISCRSSQSLLDSDGNTYLYWFQQRPGQSPRRLIYLVSTLGSGVPDRFSGSGSGTDFTLKISRVEAEDVGVYYCMQLTHWPYTFGQGTKLEIK
Bmax [4]: 1.21
Bmax [5]: 0.339
Bmax [6]: 3.02

B4: 1G10 (antibody, V domains shown)
VH: QVQLVQSGAEVKKPGSSVKVSCKASGFTFTTYYISWVRQAPGQGLEYLGYINMGSGGTNYNEKFKGRVTITADKSTSTAYMELSSLRSEDTAVYYCAILGYFDYWGQGTMVTVSS
VL: DVVMTQSPLSLPVTLGQPASISCRSSQSLLDSDGATYLYWFQQRPGQSPRRLIYLVSTLGSGVPDRFSGSGSGTDFTLKISRVEAEDVGVYYCMQLTHWPYTFGQGTKLEIK
Bmax [4]: 1.08
Bmax [5]: 0.3
Bmax [6]: 2.6

B5: 5C4 (antibody, V domains shown)
VH: QVQLVQSGAEVKKPGSSVKVSCKASGFTFTTYYISWVRQAPGQGLEYLGYINMGSGGTNYNEKFKGRVTITADKSTSTAYMELSSLRSEDTAVYYCAILGYFDYWGQGTMVTVSS
VL: DVVMTQSPLSLPVTLGQPASISCRSSQSLLDSDGQTYLYWFQQRPGQSPRRLIYLVSTLGSGVPDRFSGSGSGTDFTLKISRVEAEDVGVYYCMQLTHEPYTFGQGTKLEIK
Bmax [4]: 0.258
Bmax [5]: 0.164
Bmax [6]: 2.65

B6: 8C10 (antibody, V domains shown)
VH: QVQLVQSGAEVKKPGSSVKVSCKASGFTFTTYYISWVRQAPGQGLEYLGYINMGSGGTNYNEKFKGRVTITADKSTSTAYMELSSLRSEDTAVYYCAIIGYFDYWGQGTMVTVSS
VL: DVVMTQSPLSLPVTLGQPASISCRSSQSLLDSDGQTYLYWFQQRPGQSPRRLIYLVSTLGSGVPDRFSGSGSGTDFTLKISRVEAEDVGVYYCMQLTHENYTFGQGTKLEIK
Bmax [4]: 1.11
Bmax [5]: 0.437
Bmax [6]: 2.31

B7: A6W (antibody, V domains shown)
VH: QVQLVQSGAEVKKPGSSVKVSCKASGFTFTTYYISWVRQAPGQGLEYLGYINMGSGGTNYNEKFKGRVTITADKSTSTAYMELSSLRSEDTAVYYCAILGYFDYWGQGTMVTVSS
VL: DVVMTQSPLSLPVTLGQPASISCRSSQSLLDSDGNTYLYWFQQRPGQSPRRLIYLVSTLGSGVPDRFSGSGSGTDFTLKISRVEAEDVGVYYCMQLTHWPYTFGQGTKLEIK
Bmax [4]: 0.0787
Bmax [5]: 0.174
Bmax [6]: 2.57

B8: L1I (antibody, V domains shown)
VH: QVQLVQSGAEVKKPGSSVKVSCKASGFTFTTYYISWVRQAPGQGLEYLGYINMGSGGTNYNEKFKGRVTITADKSTSTAYMELSSLRSEDTAVYYCAIIGYFDYWGQGTMVTVSS
VL: DVVMTQSPLSLPVTLGQPASISCRSSQSLLDSDGNTYLYWFQQRPGQSPRRLIYLVSTLGSGVPDRFSGSGSGTDFTLKISRVEAEDVGVYYCMQLTHAPYTFGQGTKLEIK
notes: also called L11
Bmax [4]: 0.0517
Bmax [6]: 1.05
